{"source": "paper PMC6494084", "binders": {"B1": {"name": "1-nt gapped DNA, templating A (dsDNA)", "DNA 1": "CCGACAGCGCATCAGC", "DNA 2": "GCTGATGCGC", "DNA 3": "GTCGC", "modifications": "5'-phosphate on downstream strand"}, "B2": {"name": "1-nt gapped DNA, templating C (dsDNA)", "DNA 1": "CCGACCGCGCATCAGC", "DNA 2": "GCTGATGCGC", "DNA 3": "GTCGC", "modifications": "5'-phosphate on downstream strand"}, "B3": {"name": "1-nt gapped DNA, templating G (dsDNA)", "DNA 1": "CCGACGGCGCATCAGC", "DNA 2": "GCTGATGCGC", "DNA 3": "GTCGC", "modifications": "5'-phosphate on downstream strand"}}, "assay_in_all_cases": "X-ray crystallography", "key": {"[1]": {"molecular_target": "T1, DNA polymerase beta (pol β), wild-type (human, UniProt P06746 1-335)"}, "[2]": {"molecular_target": "T1, DNA polymerase beta (pol β), wild-type", "remark": "listed apart in the source"}, "[3]": {"molecular_target": "T1, DNA polymerase beta (pol β), wild-type", "remark": "listed apart in the source"}}, "note": "Read-outs that look alike come from different tables or passages of the source.", "data": [{"binder": "B1", "values": [{"measurement": "binding result", "setting": "[1]", "result": "binds"}]}, {"binder": "B2", "values": [{"measurement": "binding result", "setting": "[2]", "result": "binds"}]}, {"binder": "B3", "values": [{"measurement": "binding result", "setting": "[3]", "result": "binds"}]}]}
